In article PMC9302846, “Three enigmatic BioH isoenzymes are programmed in the early stage of mycobacterial biotin synthesis, an attractive anti-TB drug target” (PLoS Pathogens, 2022):

B1: BioH2 (MSMEG_1352) of M. smegmatis MC2 155, hexa-histidine-tagged (enzyme, Mycobacterium smegmatis MC2 155, UniProt A0QS51 1-305, looked up)
chain: MQTRTGLARAGDADHPIDLFYEDMGDPGDPAVLLIMGLGAQMLMWRTEFCEKLVDQGLRVIRFDNRDVGLSTKLSGQRVDSPLALRMARSFLGKRSPAVYTLEDMADDAAALLDHLEIDRAHIVGGSMGGMIAQVFASQHAARTETLGVIFSSNNQALLPPPGIRQLLSLITGPPADASRDAVLDNAVRLSRLNGSPAYPRSEEEIRAEAAELYDRAYYPAGIARHFAAILGSGSLRHHNERVTAPTVVIHGRADRLMPPSGGRAIANAIRGARMVLIDGMGHELPEPVWDEVIGELKTNFAVVG
notes: BioH2, product of MSMEG_1352 of Mycobacterium smegmatis MC2 155; source: E. coli BL21(DE3), pET28a, purified (nickel column, dialysis)

Tests used:
[1] = target: Seleno-methionine (Se-Met) substituted BioH3 protein (Mycobacterium smegmatis MC2 155) (UniProt A0R6Y0); test: crystal structure; Se-substituted BioH3, sitting-drop vapor diffusion at 16°C; 20 mM citric acid, 80 mM Bis-Tris propane pH 8.8, 16% PEG3350; SAD; space group P2(1), six molecules per asymmetric unit
[2] = target: the molecule itself; test: SEC; Superdex 200 Increase column; protein dialyzed in 20 mM Tris-HCl (pH 8.0), 150 mM NaCl and concentrated to ~15 mg/ml

Molecule | stoichiometry N [1] | binding result [2]
Seleno-methionine (Se-Met) substituted BioH3 protein (from UniProt A0R6Y0 1-282) (enzyme) | 2 | 
B1 |  | binds
